Test results published in publication PMC7356819, “Lanthanide-Dependent Methanol and Formaldehyde Oxidation in Methylobacterium aquaticum Strain 22A” (Microorganisms, 2020).

B1: XoxF1-His (XoxF1, Ln3+-dependent methanol dehydrogenase) (Methylobacterium aquaticum) (protein)
chain: NEDVLKRTANPAEQVLQTVDYANTRYSKLDQINAGNVNKLQVAWTFSTGVLRGHEGSPLVVGDVMYVHTPFPNIVYALDLNQDGKILWKYEPKQDPNVIPVMCCDTVNRGLAYADGAIFLHQADTTIVSLDAKSGKVNWSVQNGDPKIGETNTATVLPVKDKLIVGIAGAEYGIRGHITAYDLKTGKQAWRAYNLGPDAEMKIDPEKTTELGKPVGKDSSIKTWEGDQWKTGGASTWGWYSYDPKLNLVYYGTGNPSTWNPKQRPGDNKWSMTIFARDADTGVAKWVYQMTPHDEWDYDGINEMILTDQKIGDKERPLLTHFDRNGFGYTLDRATGELLVAEKYDPAVNWATKVDQDKSSKTYGRPLVVAKYSTDQNGEDTNSKGICPAALGSKDQQPAAYSPKTNLFYVPTNHVCMDYEPFRVSYTPGQPYVGATLSMYPAPNSHGGMGNFIAWDGTAGKIKWSNPEQFSVWSGALATAGDVVFYGTLEGYLKAVDSKTGKELYKFKTPSGIIGNVMTFQHKGKQNIAVLSGVGGWAGIGLAAGLTDPNAGLGAVGGYAALSSYTNLGGQLTVFNLPN
notes: His-tagged (primer-encoded at 3' end, C-terminal), tag kept; Ni-NTA; ca. 60 kDa monomer

Legend:
[1] = molecular target: T1, Hgd (S-hydroxymethyl glutathione dehydrogenase) (Methylobacterium aquaticum, UniProt A0A0C6FVV4); assay: NADH formation at […] nm in cell-free extract, hgd deletion mutant as control; type: biochemical; conditions: S-hydroxymethylglutathione formed in situ from formaldehyde and glutathione; NAD, sodium phosphate pH 7, premix at 25 °C
T1 construct: gene adhC; native enzyme in cell-free extract of strain 22A; activity absent in the hgd deletion mutant

[2] = substrate: C=O; assay: purified protein; type: biochemical, Methylobacterium aquaticum; conditions: PMS and DCPIP as electron acceptors, ammonium chloride, La3+-loaded enzyme (0.58 La per monomer), Tris-HCl pH 9.0, 30 °C, formaldehyde prepared from autoclaved paraformaldehyde
[3] = substrate: CO; assay: purified protein; type: biochemical, Methylobacterium aquaticum; conditions: PMS and DCPIP as electron acceptors, ammonium chloride, La3+-loaded enzyme (0.58 La per monomer), Tris-HCl pH 9.0, 30 °C

T1 sequence (A0A0C6FVV4 entry or part of it): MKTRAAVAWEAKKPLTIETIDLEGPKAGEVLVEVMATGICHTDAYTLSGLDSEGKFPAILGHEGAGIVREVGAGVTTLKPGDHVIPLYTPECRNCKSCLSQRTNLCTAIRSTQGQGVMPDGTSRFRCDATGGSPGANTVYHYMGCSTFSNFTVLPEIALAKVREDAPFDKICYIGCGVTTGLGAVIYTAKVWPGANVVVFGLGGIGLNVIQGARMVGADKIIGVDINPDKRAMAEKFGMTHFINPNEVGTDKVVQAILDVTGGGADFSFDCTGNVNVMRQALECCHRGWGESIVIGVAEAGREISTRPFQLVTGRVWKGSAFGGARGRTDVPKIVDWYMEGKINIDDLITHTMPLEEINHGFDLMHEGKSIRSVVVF

| Molecule | NADH formation at 340 nm in cell-free extract, hgd deletion mutant as control [1] | Km [2] [µM] | Km [3] [µM] |
| --- | --- | --- | --- |
| N[C@@H](CCC(=O)N[C@@H](CSCO)C(=O)NCC(=O)O)C(=O)O [S-hydroxymethyl glutathione] | hgd indeed encodes S-hydroxymethylglutathione dehydrogenase | – | – |
| B1 | – | 340 | 30 |
